Consider 1 substance from US20200299347A1.

This assay has as its target FGFR3. Put plainly: cell-based or functional assay.

As to “sprifermin (rhFGF18) (from UniProt O76093 28-196) (ligand)”, the FGF18 EC50 (nM), BaF3/FGFR3 cell proliferation (ATP) assay was found to be 0.02 nM.
